Source: the DeepSol protein solubility set

assay: soluble on expression in E. coli; label from the status in PepcDB or PDB records

Sequence | soluble on expression in E. coli
MSLKKSLTELISDLKGNENVVNWHEIEPREAKTRPMPESIDERIKAALSKRGIDELYTHQYSAFQYVQKGESIVTVTPTASGKTLCYNLPVLQSIAQDETNRALYLFPTKALAQDQKSELNEIIDEMGIDIKSFTYDGDTSPAIRQKVRKAGHIVITNPDMLHSAILPHHTKWVSLFENLKYIVIDELHTYRGVFGSHVANVIRRLKRICRFYGSDPVFICTSATIANPKELGEQLTGKPMRLVDDNGAPSGRKHFVFYNPPIVNKPLNIRRSATAEVNELAKEFLKNKVQTIVFARSRVRVEIILSHIQELVKKEIGTKSIRGYRGGYLPKERREIERGLREGDILGVVSTNALELGVDIGQLQVCVMTGYPGSVASAWQQAGRAGRRHGESLIIMVANSTPIDQYIVRHPEYFFNRSPESARINPENLIILVDHLKCAAYELPFRADEEFGAMEVSDILEYLQEEAVLHRNGERYHWASESFPASNISLRSASQENVVIVDQSDIANVRIIGEMDRFSAMTLLHDEAIYLHEGVQYQVEKLDWDHKKAYVRKVDVEYYTDANLAVQLKVLEIDKTKEKSRTSLHYGDVTVNALPTIFKKIKMTTFENIGSGPIHLPEEELHTSAAWLEIKTADEDIGEKTLEQLLLGISNVLQHIVPVYIMCDRNDVHVVSQIKAAHTGLPTIFLYDHYPGGIGLAEEVFKRFSDINEAAKQLITHCPCHDGCPSCIGTEIEGIKAKERILQLLDQMSEGHHHHHH | soluble
MSLKLEAYRTLHCDAGWRRFSFLKLIAEDGTTGISEYNECYGSPGLTGVIEGVLEWIIGKNPFSHEKLSAELYARTRQAHGGIAQQAIAAVENALVDLKARSLGVPVYELLGGAVREELPLYWSHCGSYRLPRTAEMLGVPPITSLDDLVSLGKEVREKGFSALKTNIFLFEEQPHMHQPGFARSEGWPALNPERRIINSLKEQLAAFREGAGPELEILLDLNFNYRTEGFLTVCRALDDLGLGWFEMDLYDPAALARIRHALKTPVASCESLFGLRGFRPFFENQSMDVAIVDVPWNGIWQAMKIAGLAESFEVNVAPHNFYGHLSTLMSAHFCAAIPNFRIMEIDIDDVPWKDELVTKSPLIRDGILKIPEGIGWGTELNEEAIAAHPVKNTGDDRKYDRGMGEGHHHHHH | soluble
MSLKLLAFDTSSTALSVAILEDDRLLADASLTIKKNHSISLMPTIDFLMKSVNLSPQDLDRIVVAEGPGSYTGLRVAVATAKTLAYTLTIDLVGVSSLAALALNSHHEGFIVPIMDARRNHVYVGFYENGRAAKADQYASLNAVLEQLKGRKQVTFVGEVTAFRQEINQTFPEAKVLEVLPSAFKIGQVGQKLTPVDVHAFVPKYLKKVEAEENWLKTHEDSGLSYVKRVEGHHHHHH | not soluble
MSLKLLPAKQEAIEFVHFANVINDYLYKYPDKRNSGGTLTSEQIGITPVYDIHHIIYGKRVYIWSADTEGLMSALQQQTKHSAMLGRVKNKKIVDNQGNDMGVPVPSSIPEEAIVLINEGHHHHHH | soluble
MSLKNLITKLENEERLNQEEANALWDLDLFTLGKYAHKKRTKLHGKKVYFNINRHINPTNICADTCKFCAFSAHRKNPNPYLMTHEEIMKIVDETVKRETKEVHIVSAHNKDTTWQWYLEIFKMIKEKYPNLHVKAMTAAEIDFLHRRFKMSYEEVIEKMLEYGVDSMPGGGAEIFDEEVRKKICHGKVSSENWLKIHKLWHEKSKQSNATMLFGHIEERHHRIDHMLRLRDLQDQTGGFNAFIPLVWQRDKSFIQTDKIMDSEEILKTIAISRLVLDNIKNIKAYWATMTLNLAMVAQEFGANDLDGTIEKESIQSAGGAKSAKGTSLKTFIDMIKTSNLIPVERDSLYNELKTYEGHHHHHH | not soluble
MSLKPKRILLVNEQRSFQVMMKAMLINIGISRITYANSAEEARRRCQKETFDIYLLDYELGVGENGRQLLESLRDQKLIPPQSVVIMVSGDSSRAMVLSALEAEPDEYLMKPFSQEQFSFRLKRALARRQALESVFSALAKEDLPTLLAACAERADAVPRFANFCRCLQADTQLKLGQAKEARSLMRQLLAGQENSWARLTLGKACHTLGLNEEAVSHLQATLKNTPLMVEAHLWLAESQLALGNDEQAQQELKRAVDISPQSVQLSRRLAEVCLLRHDYAQAKDVLLSLIDLSRNSIHRTPHYLGAYIQSLTLYALNSNDIYHIANLQKQVNSALSRIRDSLMMSEFNYPVFEQICQARVQIALGELLKGKKMLYRANQNWLDQPATMPPSLLGETILALYQLGEFEYAESLQALLAEDEDRLLTTCIQATRDDKTVLERRQRYQQLNELGIKAYQSGELEQALGHFREALRRAPANTGAALNKIQVLLQLMQKNRKSPEFGAECKETLEVLDGIPLNPAQQDRFRKLRQEFTQLSEGHHHHHH | soluble
MSLKPLHYTASALALGLALMGNAQAVTTIPFWHSMEGELGKEVDSLAQRFNAENPDYKIVPTYKGNYEQNLSAGIAAFRTGNAPAILQVYEVGTATMMASKAIKPVYDVFKEAGIQFDESQFVPTVSGYYSDSKTGHLLSQPFNSSTPVLYYNKDAFKKAGLDPEQPPKTWQDLADYAAKLKASGMKCGYASGWQGWIQLENFSAWNGLPFASKNNGFDGTDAVLEFNKPEQVKHIAMLEEMNKKGDFSYVGRKDESTEKFYNGDCAMTTASSGSLANIREYAKFNYGVGMMPYDADAKDAPQNAIIGGASLWVMQGKDKETYTGVAKFLDFLAKPENAAEWHQKTGYLPITKAAYDLTREQGFYEKNPGADTATRQMLNKPPLPFTKGLRLGNMPQIRVIVDEELESVWTGKKTPQQALDTAVERGNQLLRRFEKSTKSEGGSHHHHHH | soluble
MSLKRKIETFLAKWKKSEDRKPLVIKGIRQCGKTYIVQKFAKENYESVVYMNFILEPDKKSAFTGNIDVDTIILNLSALIQGSRFINGKTCIILDEIQECKEARTALKSFHIDGRFDVIATGSLLGVKGYDKSKKKKEEEEGQDSVPVGYETVIDMYPLDFEEFLWANGISDMVIDSVKSCFENESTVPDGIHKAMMELLYRYVIVGGLPEVVNCFLETKNIELIYKVQRNLIAEYEEDMVKYADDPDKPRIRECFESIPKQLAKENKKFQYSVVKKGGRASQYIGSIQWLEDAGIVRRCYNTQITELPLEGNSIKGSFKVYTTDIGILMAMLDYGTQADILKGNLLGYKGAIFENLMADFLCKSGQKLYYFHKDSGLELDFLVRFKGECVILEVKAKTGKAKSMTTVLKNKDVYYVNNAIKLGQYNVGCEGDILTIPLYMGFLVEDKLADVIIPDVDVSLLTTIEGHHHHHH | soluble
MSLKRKVLFTAVMVLAGLQLLSGCGKTEASANDTVVLRYAYASNSQPVIDSMKKFGELVEEKTDGKVQIEYFPDGQLGGETELIELTQTGAIDFAKVSGSALESFSKDYSVFAIPYIFDNEKHFFKVMDNQALMQPVYDSTKKLGFVGLTYYDSGQRSFYMSKGPVTSPDDLKGKKIRVMQSETAIKMVELLGGSPVPMGSSEVYTSLQSNLINGAENNEFVLYTAGHGGVAKYYSYDEHTRVPDIVIMNEGTKERLTAKQEQAIEEAAKESTAFEKTVFKEAVEEEKKKAQAEYGVVFNQVDSEPFQKLVQPLHESFKNSSEHGELYQAIRQLADEGGSHHHHHH | soluble
MSLKRLNLYIFGENNILDILIKNGSVFSGNNNEPESNNIGIKKSKIDFIGKESPESKKVIDAKDYIVTPGFIDIHTHSDISFLVDPEADSKLTQGVTFEFLGNCGMSFCAPLNSASKQTLSDRLSKYNSDVKIDWNDFTDWLNKIEKNIPSINVAAQLGHGVLRSYVMGMKAVSATPEDIEAMKNIVRSSIDQGVLGFSTGLWYAPGSYSHTEEIVEITKVVAEHDLLYSSHIRSESDDASGLFPAHAEAIEIGRRTGAKIQISHVKSVGPQFWGRGKELLEGMYKAREEGIDVAGDQYPYEWSSTPTSGCMFPRWSLEGGREKTLERLKDKNIREAIKSETINYINRFHGSAGCVLAEFSNDKKLEGLNLSEISEEFSCSPEEAAMRLYEISEGSFVLHSMEEQDVDTIGMSDIIAVASDGNSLRNTGPLSNGKPHPRSYGTNTRFIEDMVVNKKKVSISNAIYRMTSLPASRIGLKNRGEIKKGYFADINIFKPEELREKATYVDPHQYSTGMKWVLVNGKIALKDGKKIEGRFGKVVRSKEGEGHHHHHH | soluble
MSLKRSIHVQAFVYNEKKDEILIVRNRNLAWTFPGGHVETDQTMEEALASKVKEQTNIDIEIESILHCKERRATWEHVCTFVFRAKPVGEMATFSNDDNVFRVKWIPIPLADDLLPIDQLSLNELVRSEGVLYENEGHHHHHH | soluble
MSLKSHVRSFKTYIRDEIIKKGGWVNAHAHADRAFTMTPEKIGIYHSSNLQQKWDLVDEVKRTSSVDDYYARFCQSIELMISQGVTAFGTFVDIDPICEDRAIIAAHKAREVYKHDIILKFANQTLKGVIEPTARKWFDIGAEMVDMIGGLPYRDELDYGRGLEAMDILLDKAKSLGIMCHVHVDQFNNPSEKETEQLCDKTIEHGMEGRVVGIHGISIGSHSKEYRYKLYEKMRKAKMMMIACPMAWIDSNRKEDLMPFHNALTPADEMIPEGITVALGTDNICDYMVPLCEGDLWQELSLLAAGCRFPHLDEMVNIASINGRKVLGLELIEGHHHHHH | soluble
MSLKTKTFKMQLQFLSEQNLEINNNNQLLNQEKITYLQKIEQLKCKLEYQERMIKDSEKIREESFASAKAALFDLGKDLSKQLIEIHKMENNTTRELAEKNIETASQKFNTELERLITMVGALNKDIEQSKGTVDLIKQSLLSPIGAGLLSEITLENILKSSGLRPNLDFIMQYSLTTSDSVKLRPDAIIFLPSGNLMVIDSKASKFLVDSQDNSVHLSKTMNYHLKTLTNKDYAENILTNLNKKTQNFNNVITLMFLPTEQAVEKVIAANPEFLQKAWGCNIFPVGPAGLMNMLSFAKFQITDNRRSENYKVIIEEVRKLLSSIGTIADYSKKIGYNLQNMVTNYDKFAASFNRNVMSRVKSIQKLGIDSGNKIIPATLERYQIVSAKSEIIEVDVENQHKEGHHHHHH | not soluble
MSLKTLLPTSTAGSLPKPSWLAQPEKLWSPWKLQDEELIEGKRDALRLSLNDQQQAGIDIVSDGEQTRQHFVTTFIEHLSGVDFEKRETVRIRNRYDASVPTVVGAVSREKPVFVEDAKFLRQQTRQPIKWALPGPMTMIDTLYDSHYKSREKLAWEFAKILNQEARELEAAGVDIIQFDEPAFNVFFDEVNDWGVATLEKAIEGLKCETAVHICYGYGIKANTDWKKTLGSEWRQYEEAFPKLQKSNIDLISLECHNSRVPMDLIELIRGKKVMVGAIDVATSAIETPEEVADTLRKALRFVDADKLYPCTNCGMAPLSRQVARSKLNALGAGAEIIRRELSVEGHHHHHH | soluble
MSLKTQQLLTIGQLAKFSGLHVKALRYYEKIGILNPTAIDKQNGYRYYSYAHIPYVNMIKICANYGLPLKQFTHYILDDGSIDMNAILKEAQLKIEEKERQLQSDERYLRFFSEQINFSQKLDKTTNLHIEQGNKDYFLLPFTGEMLSAKYYEAVRCALAEIEKCQMTFDDRVGCYFKYDDQQVNSFIAIKIKECQEDKTNFLSLCLNHRHIHAQHLTKDRIQPKIKELHQKESINEFLILETFESPYQLSQPHLEMQYVVDNTGEGHHHHHH | soluble
MSLKVDQKEEQVQKRLEALDKLTKTLAIVEQYYVDDQNISDLVDKSLSGLLSNLDAHSSFLNEKDFNDMKIQTNGEFGGLGITVGMKDGALTVVSPIEGTPADKAGIKSGDIILKINDEATLGINLNDAVDKMRGKPKTQITLTIFRKGATKPFDVTLTREIIKIESVYAKMIENENILYLRVTNFDKNVVDVASKELKKYPNVKGVILDLRNNPGGLLNQAIGLVNLFVDKGVIVSQKGRIASENQEYKADPKNKISNASLVVLVNGGSASASEIVSGALQDLKRGVIVGENTFGKGSVQQIIPINKTEALRLTIARYYLPSGRTIQAVGVKPDIEVFPGKVNTQEGHHHHHH | soluble
